Values quoted from earlier work as cited in patent publication US20070014786A1, “Methods for treating taxol-induced gut disorder” (RINAT NEUROSCIENCE CORP., priority 2003, published 2007).
Blank lines part the entries; values can stand above or below the molecule they belong to.

Molecular target: T1, low affinity receptor (LNGFR), p75NTR or p75 (Homo sapiens, UniProt P08138)
T1 sequence (P08138 29-427): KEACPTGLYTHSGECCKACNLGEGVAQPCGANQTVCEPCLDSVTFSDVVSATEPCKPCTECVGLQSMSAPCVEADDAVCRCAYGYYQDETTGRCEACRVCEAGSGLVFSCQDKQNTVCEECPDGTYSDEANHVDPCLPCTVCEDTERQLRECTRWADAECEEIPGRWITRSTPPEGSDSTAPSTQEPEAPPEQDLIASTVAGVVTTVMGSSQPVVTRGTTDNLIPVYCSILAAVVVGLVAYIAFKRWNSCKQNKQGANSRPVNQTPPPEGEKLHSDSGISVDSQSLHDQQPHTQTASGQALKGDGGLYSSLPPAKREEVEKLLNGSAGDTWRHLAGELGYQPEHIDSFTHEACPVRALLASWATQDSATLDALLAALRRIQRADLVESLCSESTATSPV
Settings: according to current knowledge (background)

Kd: 2 nM
B1: neurotrophin-4/5 (protein, UniProt P34130 81-210, looked up)
Neurotrophin-4: GVSETAPASRRGELAVCDAVSGWVTDRRTAVDLRGREVEVLGEVPAAGGSPLRQYFFETRCKADNAEEGGPGAGGGGCRGVDRRHWVSECKAKQSYVRALTADAQGRVGWRWIRIDTACVCTLLSRTGRA
notes: neurotrophin family member

Kd: 2 nM
B2: brain-derived neurotrophic factor (protein, UniProt P23560 19-247, looked up)
Neurotrophic factor BDNF …: APMKEANIRGQGGLAYPGVRTHGTLESVNGPKAGSRGLTSLADTFEHVIEELLDEDQKVRPNEENNKDADLYTSRVMLSSQVPLEPPLLFLLEEYKNYLDAANMSMRVRRHSDPARRGELSVCDSISEWVTAADKKTAVDMSGGTVTVLEKVPVSKGQLKQYFYETKCNPMGYTKEGCRGIDKRHWNSQCRTTQSYVRALTMDSKKRIGWRFIRIDTSCVCTLTIKRGR
notes: neurotrophin family member
